Assay results: US20200024360A1 (Janssen / Centocor, published 2020)

T1: recombinant chimpanzee PSMA extracellular domain (ECD) protein (Pan troglodytes, UniProt Q04609 44-750 (human entry))
T1 construct: also called Chimp PSMA ECD; PSMG8
T1 chain: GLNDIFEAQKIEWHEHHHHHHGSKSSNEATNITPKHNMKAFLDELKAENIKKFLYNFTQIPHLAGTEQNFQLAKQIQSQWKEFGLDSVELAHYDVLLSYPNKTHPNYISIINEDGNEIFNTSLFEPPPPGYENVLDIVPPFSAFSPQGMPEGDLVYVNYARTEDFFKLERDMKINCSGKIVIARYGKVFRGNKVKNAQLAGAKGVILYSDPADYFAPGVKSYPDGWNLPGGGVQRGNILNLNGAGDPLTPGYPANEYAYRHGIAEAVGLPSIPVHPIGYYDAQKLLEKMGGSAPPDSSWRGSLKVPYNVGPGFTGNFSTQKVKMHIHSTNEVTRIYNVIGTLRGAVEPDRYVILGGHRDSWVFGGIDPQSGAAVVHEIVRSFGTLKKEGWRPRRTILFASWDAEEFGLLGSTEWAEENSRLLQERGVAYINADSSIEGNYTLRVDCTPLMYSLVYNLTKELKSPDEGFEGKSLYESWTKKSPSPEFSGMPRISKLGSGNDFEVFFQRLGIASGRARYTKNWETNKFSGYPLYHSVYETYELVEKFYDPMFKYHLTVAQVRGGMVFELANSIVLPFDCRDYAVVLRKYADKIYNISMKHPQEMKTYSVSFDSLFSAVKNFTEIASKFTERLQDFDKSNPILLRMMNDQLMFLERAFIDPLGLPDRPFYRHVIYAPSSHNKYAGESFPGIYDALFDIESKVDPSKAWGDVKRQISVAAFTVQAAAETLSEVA

T2: Cynomolgous monkey PSMA, full length (Macaca fascicularis, UniProt Q04609 1-750 (human entry))
T2 construct: On transfected HEK293F cells; also called cyno PSMA; EHH56646.1
T2 chain: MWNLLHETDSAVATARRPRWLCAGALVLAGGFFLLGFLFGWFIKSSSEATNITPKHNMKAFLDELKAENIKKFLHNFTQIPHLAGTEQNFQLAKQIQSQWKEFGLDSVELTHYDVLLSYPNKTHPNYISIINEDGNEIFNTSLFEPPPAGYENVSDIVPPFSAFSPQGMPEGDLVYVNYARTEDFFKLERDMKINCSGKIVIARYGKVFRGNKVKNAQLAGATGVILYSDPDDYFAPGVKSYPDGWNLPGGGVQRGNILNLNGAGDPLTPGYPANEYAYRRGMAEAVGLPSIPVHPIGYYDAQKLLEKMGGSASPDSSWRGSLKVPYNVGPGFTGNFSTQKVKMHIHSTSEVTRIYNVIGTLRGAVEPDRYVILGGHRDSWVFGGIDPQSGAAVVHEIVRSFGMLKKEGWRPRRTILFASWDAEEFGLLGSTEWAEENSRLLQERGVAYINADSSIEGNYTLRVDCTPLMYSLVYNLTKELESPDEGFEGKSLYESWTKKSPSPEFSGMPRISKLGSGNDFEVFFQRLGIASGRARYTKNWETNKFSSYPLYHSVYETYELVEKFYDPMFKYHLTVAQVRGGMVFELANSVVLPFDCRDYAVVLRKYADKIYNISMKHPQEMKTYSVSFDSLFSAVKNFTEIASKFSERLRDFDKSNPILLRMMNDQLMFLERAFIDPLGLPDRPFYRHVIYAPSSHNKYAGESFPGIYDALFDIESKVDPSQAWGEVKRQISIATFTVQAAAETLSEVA

B1: PS3B27 (bispecific antibody, human IgG4 S228P, kappa, lambda, F234A L235A)
heavy 1: not shown
light 1: not shown
heavy 2: EVQLVESGGGLVQPGGSLRLSCAASGFTFNTYAMNWVRQAPGKGLEWVARIRSKYNNYATYYAASVKGRFTISRDDSKNSLYLQMNSLKTEDTAVYYCARHGNFGNSYVSWFAYWGQGTLVTVSSASTKGPSVFPLAPCSRSTSESTAALGCLVKDYFPEPVTVSWNSGALTSGVHTFPAVLQSSGLYSLSSVVTVPSSSLGTKTYTCNVDHKPSNTKVDKRVESKYGPPCPPCPAPEAAGGPSVFLFPPKPKDTLMISRTPEVTCVVVDVSQEDPEVQFNWYVDGVEVHNAKTKPREEQFNSTYRVVSVLTVLHQDWLNGKEYKCKVSNKGLPSSIEKTISKAKGQPREPQVYTLPPSQEEMTKNQVSLTCLVKGFYPSDIAVEWESNGQPENNYKTTPPVLDSDGSFLLYSKLTVDKSRWQEGNVFSCSVMHEALHNHYTQKSLSLSLGK
light 2: QTVVTQEPSLTVSPGGTVTLTCRSSTGAVTTSNYANWVQQKPGQAPRGLIGGTNKRAPGTPARFSGSLLGGKAALTLSGVQPEDEAEYYCALWYSNLWVFGGGTKLTVLGQPKAAPSVTLFPPSSEELQANKATLVCLISDFYPGAVTVAWKADSSPVKAGVETTTPSKQSNNKYAASSYLSLTPEQWKSHRSYSCQVTHEGSTVEKTVAPTECS
notes: IgG4 PAA; PSMA arm chains first, then CD3 arm (F405L, R409K); also called PSMB127 x CD3B219; PS2B27
B2: PS3B23 (bispecific antibody, human IgG4 S228P, kappa, lambda, F234A L235A)
heavy 1: not shown
light 1: not shown
heavy 2: B1 heavy 2
light 2: B1 light 2
notes: IgG4 PAA; PSMA arm chains first, then CD3 arm (F405L, R409K); also called PSMB123 x CD3B219
B3: PS3B25 (bispecific antibody, human IgG4 S228P, kappa, lambda, F234A L235A)
heavy 1: not shown
light 1: not shown
heavy 2: B1 heavy 2
light 2: B1 light 2
notes: IgG4 PAA; also called PSMB87 x CD3B219
B4: PS3B22 (bispecific antibody, human IgG4 S228P, kappa, lambda, F234A L235A)
heavy 1: not shown
light 1: DIQMTQSPSSLSASVGDRVTITCRASQSIDRWLNWYQQKPGKAPKLLIYAASSLQSGVPSRFSGSGSGTDFTLTISSLQPEDFATYYCQQSPRYPLTFGQGTKVEIKRTVAAPSVFIFPPSDEQLKSGTASVVCLLNNFYPREAKVQWKVDNALQSGNSQESVTEQDSKDSTYSLSSTLTLSKADYEKHKVYACEVTHQGLSSPVTKSFNRGEC
heavy 2: B1 heavy 2
light 2: B1 light 2
notes: IgG4 PAA; PSMA arm chains first, then CD3 arm (F405L, R409K); also called PSMB122 x CD3B219; PSB22
B5: PS3B30 (bispecific antibody, human IgG4 S228P, kappa, lambda, F234A L235A)
heavy 1: not shown
light 1: not shown
heavy 2: B1 heavy 2
light 2: B1 light 2
notes: IgG4 PAA; PSMA arm chains first, then CD3 arm (F405L, R409K); also called PSMB130 x CD3B219
B6: PS3B19 (bispecific antibody, human IgG4 S228P, kappa, lambda, F234A L235A)
heavy 1: not shown
light 1: not shown
heavy 2: B1 heavy 2
light 2: B1 light 2
notes: IgG4 PAA; PSMA arm chains first, then CD3 arm (F405L, R409K); also called PSMB119 x CD3B219
B7: PS3B20 (bispecific antibody, human IgG4 S228P, kappa, lambda, F234A L235A)
heavy 1: not shown
light 1: not shown
heavy 2: B1 heavy 2
light 2: B1 light 2
notes: IgG4 PAA; PSMA arm chains first, then CD3 arm (F405L, R409K); also called PSMB120 x CD3B219
B8: PS3B24 (bispecific antibody, human IgG4 S228P, kappa, lambda, F234A L235A)
heavy 1: not shown
light 1: not shown
heavy 2: B1 heavy 2
light 2: B1 light 2
notes: IgG4 PAA; PSMA arm chains first, then CD3 arm (F405L, R409K); also called PSMB124 x CD3B219
B9: PS3B28 (bispecific antibody, human IgG4 S228P, kappa, lambda, F234A L235A)
heavy 1: not shown
light 1: not shown
heavy 2: B1 heavy 2
light 2: B1 light 2
notes: IgG4 PAA; PSMA arm chains first, then CD3 arm (F405L, R409K); also called PSMB128 x CD3B219

Experiments:
[1] = target: T1, recombinant chimpanzee PSMA …; test: SPR ProteOn, bsAb captured by anti-Fc
Protocol: The interactions of PSMA×CD3 bispecific mAbs with target (recombinant Chimp, PSMA) were studied by Surface Plasmon Resonance (SPR) using a ProteOn XPR36 system (BioRad). […] Approximately 4400 RU (response units) of anti-Human IgG Fc antibodies were immobilized. The kinetic experiments were performed at 25° C. in running buffer (DPBS+0.03% P20+100 μg/ml BSA). […] The association phase was monitored for 3 minutes at 50 μL/min, then followed by 15 minutes of buffer flow (dissociation phase). The chip surface was regenerated with two 18 second pulses of 100 mM Phosphoric acid (H₃PO₄, Sigma, cat #7961) at 100 μL/min.
The collected data were processed using ProteOn Manager software. First, the data was corrected for background using inter-spots. Then, double reference subtraction of the data was performed by using the buffer injection for analyte injections. The kinetic analysis of the data was performed using a Langmuir 1:1 binding model.

[2] = target: T2, Cynomolgous monkey PSMA, full length; test: FACS, whole cell binding, cyno PSMA HEK; calculated EC50
Protocol: PSMA×CD3 bispecific antibodies were tested for binding to PSMA positive cell lines LNCAP, human PSMA-HEK, Chimpanzee-PSMA-HEK and Cynomolgous monkey PSMA-HEK. To assess the binding capabilities of the PSMA bispecific antibodies, the cell-binding assay was utilized (described previously). Briefly, PSMA expressing tumor cells are bound by bispecific antibodies at known concentrations and the bound antibody is detected by an anti-human kappa light chain PE conjugated detection reagent (Invitrogen). The Mean Fluorescents Intensity (MFI) is the measure of bound bispecific antibody. The MFI is converted to a relative EC₅₀. EC₅₀ is a commonly used dose-response curve, where the half maximal effective concentration or the EC₅₀ point is defined as the inflection point of the curve. EC₅₀ s were determined by measuring cell bound bispecific and known concentrations. […] The dose response curves were then diluted down to that of background or no bispecific binding. The inflection point of this curve reflects the EC₅₀ point. The calculated EC₅₀ is determined by taking the ug/ml amount of bispecific antibody at the EC₅₀ point and converting it to a molarity value based on the MW of the bispecific antibody. Bispecific antibodies were normalized for protein concentration and then incubated with the same number of cells expressing either human or cyno PSMA. The MFI at each concentration was collected by flow cytometry and plotted as a function of concentration. Data was transformed via log 10 and then plotted. Nonlinear regression of binding curves was done to determine EC₅₀ s. These relative values were used for ranking PSMA binding to target cells.

Binder | Kd [1] [nM] | koff [1] [s⁻¹] | kon [1] [M⁻¹ s⁻¹] | EC50 [2] [nM]
B1 | 10.4 | 0.00176 | 170000 | 9.9
B2 | 1.8 | 0.00176 | 989000 | 26.4
B3 | 5.5 | 0.00106 | 195000 | –
B4 | 19 | 0.00124 | 65100 | 8
B5 | 22.4 | 0.00165 | 73400 | 37.8
B6 | 23.6 | 0.000298 | 12600 | 12.4
B7 | 21.4 | 0.000378 | 17600 | 14.1
B8 | 40.3 | 0.000252 | 6260 | 128
B9 | 17.4 | 0.00233 | 134000 | 4.8
